Results published in patent publication US20050282740A1.
Where two headings read alike, the source gives them in different places. Blank lines part the entries; values can stand above or below the substance they belong to.

How the values were obtained:
WFYpSPFLE [1] = experiment: fluorescence anisotropy; low affinity site
[2] = target: proteins from 32P or 35S-labeled HeLa cell lysates; experiment: GST pull-down from labeled HeLa lysates pretreated with CIP, PP1 and PP2A
EQPLpTPVTDL = experiment: fluorescence anisotropy, GST-WW-domain on fluorescein-labelled peptide
WFYpSPFLE [3] = experiment: as above
WFYpSPFLE [4] = experiment: fluorescence anisotropy; high affinity site
WFYpSPFLE [5] = experiment: fluorescence anisotropy; Table 2 prints 1.0 for this pair
[6] = target: tau peptide (pT-231), SEQ ID NO: 20; experiment: ELISA on tau peptide
[7] = target: tau peptide (pT-231), SEQ ID NO: 20; experiment: ELISA on tau peptides
[8] = target: tau peptide (pT-231), SEQ ID NO: 20; experiment: ELISA on tau peptides; remark: listed apart in the source
WFYpSPFLE [9] = experiment: fluorescence anisotropy with fluorescein labeled Pintide; high affinity site
[10] = target: Amyloid Precursor Protein Peptide … (pT-668); experiment: ELISA on amyloid precursor protein peptide; binder not labelled in the row, taken as Pin1
[11] = target: tau peptide … (pT-231), SEQ ID NO: 29; experiment: ELISA on tau peptide
GST-Pin1 (human) = GST-Pin1 (human) (UniProt Q13526); experiment: competition with MPM-2 antigens for GST-Pin1, pull-down and MPM-2 immunoblot
[12] = target: GST-WW-domain of Pin1 (human) (UniProt Q13526); experiment: competition with MPM-2 antigens for GST-WW-domain of Pin1, pull-down and MPM-2 immunoblot

Kd (WFYpSPFLE [1]): 15000 nM
Substance: Pin1 PPIase domain (from UniProt Q13526 47-163) (enzyme)

fold reduction of binding after pretreatment of lysates with Ser phosphatases [2]: 10 fold
Substance: GST-Nedd4 WW-domain-1 (from UniProt P46935 249-282)

Kd (EQPLpTPVTDL): 2200 nM
Kd (WFYpSPFLE [3]): 1000 nM
Substance: GST-WW-domain of Pin1 (from UniProt Q13526 1-54)

Kd (WFYpSPFLE [4]): 1000 nM
Kd (WFYpSPFLE [5]): 1200 nM
Substance: Pin1 WW-domain (from UniProt Q13526 1-54)

Binding (OD @ 405 nm) [6]: 1.46 OD 405 nm
Kd [7]: 25 nM
Kd [8]: 40 nM
Kd (WFYpSPFLE [1]): 11000 nM
Kd (WFYpSPFLE [4]): 1200 nM
Kd (WFYpSPFLE [9]): 1200 nM
Binding (OD @ 405 nm) [10]: 1.81 OD 405 nm
Substance: Pin1 (from UniProt Q13526 1-163) (enzyme)

Binding (OD @ 405 nm) [11]: 1.3 OD 405 nm
Kd (WFYpSPFLE [9]): 2000 nM
Substance: Pin1^R14A (from UniProt Q13526 1-163) (enzyme)

Kd (WFYpSPFLE [1]): 13000 nM
Kd (WFYpSPFLE [4]): 1200 nM
Substance: GST-Pin1 (from UniProt Q13526 1-163) (enzyme)

Kd (WFYpSPFLE [1]): 13500 nM
Substance: GST-Pin1^Y23A (from UniProt P08515 1-218; Q13526 1-163) (enzyme)

Continued, substance first:

Substance: GST-Pin1^S18E (from UniProt Q13526 1-163) (enzyme)
Kd (WFYpSPFLE [1]): 12000 nM
Kd (WFYpSPFLE [4]): 1000 nM

Substance: GST-Pin1^S16E (from UniProt Q13526 1-163) (enzyme)
Kd (WFYpSPFLE [1]): 10500 nM

Substance: Pin1^S16A (from UniProt Q13526 1-163) (enzyme)
Kd (WFYpSPFLE [9]): 1200 nM

Substance: Pin1^Y23F (from UniProt Q13526 1-163) (enzyme)
Kd (WFYpSPFLE [9]): 5000 nM

Substance: GST-Pin1^W34A (from UniProt Q13526 1-163) (enzyme)
Kd (WFYpSPFLE [1]): 14000 nM

Substance: GST-Nedd4 WW-domain-2 (from UniProt P46935 405-438)
Kd (EQPLpTPVTDL): 20000 nM
Kd (WFYpSPFLE [3]): 10000 nM
fold reduction of binding after pretreatment of lysates with Ser phosphatases [2]: 10 fold

Substance: GST-Pin1^R14A (from UniProt Q13526 1-163) (enzyme)
Kd (WFYpSPFLE [1]): 13500 nM
Kd (WFYpSPFLE [4]): 2000 nM

Substance: Pintide (WFYpSPRLKK) (peptide)
peptide concentration at which significant competition was detected (GST-Pin1 (human)): 50 µM
peptide concentration of complete competition (GST-Pin1 (human)): 250 to 500 µM
peptide concentration at which significant competition was detected [12]: 50 µM
peptide concentration of complete competition [12]: 250 to 500 µM

Substance: GST-Pin1^S16A (from UniProt Q13526 1-163) (enzyme)
Kd (WFYpSPFLE [1]): 10500 nM
Kd (WFYpSPFLE [4]): 1200 nM
